Test results taken from patent US20140072613A1 (published 2014).

T1: Flt3(h) (human, UniProt P36888 564-993, limits assumed)
T1 sequence (looked up): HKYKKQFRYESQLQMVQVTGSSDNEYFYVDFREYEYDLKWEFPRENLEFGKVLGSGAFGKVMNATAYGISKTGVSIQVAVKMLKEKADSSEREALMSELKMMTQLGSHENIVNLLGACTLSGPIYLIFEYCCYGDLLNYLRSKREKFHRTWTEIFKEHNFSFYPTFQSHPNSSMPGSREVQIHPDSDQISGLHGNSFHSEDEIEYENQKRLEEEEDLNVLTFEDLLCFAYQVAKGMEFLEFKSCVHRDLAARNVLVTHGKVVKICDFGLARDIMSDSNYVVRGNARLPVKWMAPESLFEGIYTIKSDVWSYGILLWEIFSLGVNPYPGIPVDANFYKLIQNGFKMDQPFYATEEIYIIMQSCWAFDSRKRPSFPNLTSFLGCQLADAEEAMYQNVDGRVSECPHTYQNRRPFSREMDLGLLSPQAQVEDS

T2: MRCKβ(h) (human, UniProt Q9Y5S2 1-473, limits assumed)
T2 sequence (looked up): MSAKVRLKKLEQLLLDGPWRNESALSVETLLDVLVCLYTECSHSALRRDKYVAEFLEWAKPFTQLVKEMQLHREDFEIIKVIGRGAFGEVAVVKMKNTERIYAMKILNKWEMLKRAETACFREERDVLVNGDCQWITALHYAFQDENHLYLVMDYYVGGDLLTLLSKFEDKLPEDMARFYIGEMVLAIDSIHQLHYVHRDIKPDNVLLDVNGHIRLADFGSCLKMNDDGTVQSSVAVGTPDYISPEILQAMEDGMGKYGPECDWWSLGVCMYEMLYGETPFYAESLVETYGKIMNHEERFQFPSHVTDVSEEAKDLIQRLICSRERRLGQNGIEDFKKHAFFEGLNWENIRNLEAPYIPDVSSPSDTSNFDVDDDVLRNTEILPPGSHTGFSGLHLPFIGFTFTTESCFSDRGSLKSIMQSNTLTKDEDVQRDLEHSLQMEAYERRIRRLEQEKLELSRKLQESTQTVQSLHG

T3: EphA1(h) (human, UniProt P21709 569-976, limits assumed)
T3 sequence (looked up): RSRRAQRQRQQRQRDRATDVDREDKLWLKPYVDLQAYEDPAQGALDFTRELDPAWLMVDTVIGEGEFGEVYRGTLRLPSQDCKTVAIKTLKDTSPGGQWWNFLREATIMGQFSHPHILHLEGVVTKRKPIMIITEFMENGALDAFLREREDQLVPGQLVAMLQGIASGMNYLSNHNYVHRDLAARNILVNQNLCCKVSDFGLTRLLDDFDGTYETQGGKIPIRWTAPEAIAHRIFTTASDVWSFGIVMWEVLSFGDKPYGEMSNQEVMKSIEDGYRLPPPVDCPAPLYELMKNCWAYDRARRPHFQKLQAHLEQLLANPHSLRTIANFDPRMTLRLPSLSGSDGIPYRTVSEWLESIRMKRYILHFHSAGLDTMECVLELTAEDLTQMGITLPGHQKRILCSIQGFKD


Columns and labels:
Assay in all cases: cell-based or functional assay
[1] = molecular target: GRK6(h) (human, UniProt P43250 1-576)
[2] = molecular target: FGFR4(h) (human, UniProt P22455 460-802, limits assumed)
[3] = molecular target: T1, Flt3(h)
[4] = molecular target: T2, MRCKβ(h)
[5] = molecular target: EGFR(L861Q)(h) (human, UniProt P00533 696-1210, limits assumed)
[6] = molecular target: MAPK2(h) (human, UniProt P28482 1-360)
[7] = molecular target: Yes(h) (human, UniProt P07947 1-543)
[8] = molecular target: T3, EphA1(h)
[9] = molecular target: SRPK1(h) (human, UniProt Q96SB4 1-655)
[10] = molecular target: Abl(Q252H)(h) (human, UniProt P00519 27-1130, limits assumed)
[11] = molecular target: EGFR(h) (human, UniProt P00533 696-1210, limits assumed)
[12] = molecular target: Fes(h) (human, UniProt P07332 1-822, limits assumed)
[13] = molecular target: Met(D1246H)(h) (human, UniProt P08581-2 974-1408, limits assumed)
[14] = molecular target: Pim-1(h) (human, UniProt P11309 1-313)
[15] = molecular target: Src(T341M)(h) (human, UniProt P12931 1-536, limits assumed)
[16] = molecular target: Met(h) (human, UniProt P08581 956-1390, limits assumed)
[17] = molecular target: Fer(h) (human, UniProt P16591 541-822, limits assumed)
[18] = molecular target: IGF-1R(h), activated (human, UniProt P08069 959-1367, limits assumed)
[19] = molecular target: SAPK2a(T106M)(h) (human, UniProt Q16539 1-360)

Binder	% activity, 100 µM [1] [%]	% activity, 100 µM [2] [%]	% activity, 100 µM [3] [%]	% activity, 100 µM [4] [%]	% activity, 100 µM [5] [%]	% activity, 100 µM [6] [%]	% activity, 100 µM [7] [%]	% activity, 100 µM [8] [%]	% activity, 100 µM [9] [%]	% activity, 100 µM [10] [%]	% activity, 100 µM [11] [%]	% activity, 100 µM [12] [%]	% activity, 100 µM [13] [%]	% activity, 100 µM [14] [%]	% activity, 100 µM [15] [%]	% activity, 100 µM [16] [%]	% activity, 100 µM [17] [%]	% activity, 100 µM [18] [%]	% activity, 100 µM [19] [%]
FAKLAARLYRKALARQLGVAA [MMI-0300]	147	28	84	83	25	98	67	73	90	82	21	20	125	8	70	65	130	80	97
KAFAKLAARLYRKALARQLGVAA [MMI-0400]	141	19	18	71	22	93	14	61	96	98	16	16	68	7	76	62	108	77	99
